Experimental data: the supplement of paper PMC9170038

Test system: K4 kissing-loop RNA reporter
Test: apparent KD of K4 kissing-loop reporter; higher = weaker reporter binding
Settings: Eterna round: R107
Experimental: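 RNA-MaP round R107: designed RNA switches with theophylline, tryptophan, arginine or FMN aptamers are transcribed on-chip within common flanks. They are titrated with a labelled K4 kissing-loop RNA reporter in RNA-MaP buffer (100 mM Tris pH 7.5, 80 mM KCl, 4 mM MgCl2), without ligand or with the indicated ligand. Median apparent KD per design.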

[1] = input ligand: theophylline 20 uM
[2] = input ligand: tryptophan 2.4 mM
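Further: bound reporter read as fluorescence of individual clusters on recovered sequencing chips by microscopy, with normalized cluster intensities fitted with a binding model.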

Sequence | apparent KD of K4 kissing-loop reporter (input ligand: FMN 200 uM) [nM] | apparent KD of K4 kissing-loop reporter (input ligand: arginine 13.2 mM) [nM] | apparent KD of K4 kissing-loop reporter (input ligand: none) [nM] | apparent KD of K4 kissing-loop reporter [1] [nM] | apparent KD of K4 kissing-loop reporter [2] [nM]
UUUAGGAACUGAGGAUAUUCGAAGAAAUAUAGUGAUGUUAUAUAAGGAGGAGGAGGGAGGGAGGAAGGAGAAGGCAGAAGAGGAG [ExFMNB.E] | 368 | 243 | 246 | 330 | 248
GUGGUACAGGCGGCCGCCACUAGUGAUGUUAGUGUUAGAAGAUAUAGUAUAUAUCGGCAUUUGUUUAGGACCGGGCCUGGUGGAG [aqzacmullin] | 209 | 166 | 184 | 189 | 182
AUCAUUAGUUCGGCCGCCACUCCAGUGAUGUUGGAGGGACGCAUAAUAUGCGCGCGGCUAACUAGGAGGACCGGGAACUUUAGGC [Maonce] | 82.8 | 115 | 133 | 86.9 | 156
UAGGAGUGAUGUUCCAUGUCUUGAGCCGAAGGAGCGCCUUUCUAGGCAGGUAGGUCGCGGCAGAAGGUACCAGUGAUGUUGGAAA [Same State Arginine A GF8] | 249 | 385 | 372 | 283 | 279
GUGCGCGCGGCGGCCGCCACUCGCAUGAGAGUGAUGUUCUCACCGUGACCGCAAGGUCGCGGUGUGAGGACCGGGCCGGGCUGCG [#2 Same State - Tryptophan B Attempt #25 (HarryS)] | 74.3 | 93.5 | 217 | 464 | 297
UGUCAUUGGUCGGCCGCCACUUCAUAUAGAGUGAUGUUCUGAAAGACGGAUCGAAAGAUCUGUCGAAGGACCGGGACCGAUGACU [FiskerMod 12 - Jieux - Same State - Tryptophan B] | 1100 | 810 | 1640 | 1100 | 268
UUUUUAUGCAGUGAUGUUGCUAAUAUAACAGAGGAUAUGCAUUAAUGCAGAAGGCUGAAAUACUAUACUUUAAUAUAUUAAAUUU [JR_SSFMNA_Sub015] | 94.3 | 132 | 126 | 155 | 99.5
UAACCGCAGAAAGAUACCAGUGAGUGAUGUUCCUCGAUCCUGUGGUUCAUUCUCUUUACCCACCCUUGGCAGCUUCAAAUGUGAC [theeternabot_exclusion_KL_Theo_B_4] | 831 | 537 | 850 | 573 | 602
CGAUGGAUGGCAGGAUAUAGACAUUGAGUGAUGUUCGAUGAUUAUCCAUAUUCCCGUCACCUAAGACUAGAAGGGCCAUCCAUCG | 554 | 167 | 205 | 191 | 198
AAGCAGUCACUCGAAUCCAUCGAAGAUGGGCGAGGACCGGUACGGCCGCCACUCGGAGUGAUGUUCCGCAGACUGCAAAAUAAAA | 636 | 402 | 863 | 580 | 478
AUGGCACCUGCGGCCGCCACUCACUCCGGGCUGCUGGCCAGUGAUGUUGGUACGGCUGCCGGUUAGAGGACCGGGCAGGAGCUAA [Rienisdite] | 88.8 | 103 | 107 | 97.8 | 90.7
UUUGUAUAGGGAAGGAGCGUGAAUGAUAAAGAAUAUAGUGAUGUUAUAUAGAAGAAAGAAUCACAGGUAGGUCGCCCGGAGGAGG [SSArgB.H] | 599 | 491 | 552 | 450 | 361
CCAUUCAGUUACGAUACCAGUCUAAUAUAUUUGAUCAAAACCCUCGCCGAGUGAUGUUCGGACCCUUGGCAGCGUCUGGGACAGG [xxcetmullin] | 481 | 399 | 421 | 379 | 344
UGUGAGCUGUCGACAAAAGUCGACUAAAAUGAGGAUAUGACGAAAGUCAGAAGGCAUCAAUAAUGGAGUGAUGUUCCUGCUCACU [FmnA 9 U30+A56] | 373 | 432 | 809 | 790 | 763
AUGUUUUAUAAACUCAUGGUUUCGACAGAUACCAGCUUCGAGAGGAGCCCUUGGCAGCUGCAUGAGUGAUGUUCAUGUACGAAGA [KL-XTheoA7] | 374 | 356 | 465 | 415 | 265
GAUGGUCGAGAAGGAUAUGUGACUACCAGAAGGAAAUUCAGUGAUGUUGAUUGUCGCGAGCAGGAGACAGAAGGUCUCAGACAUA [theeternabot_exclusion_KL_FMN_B_5] | 506 | 265 | 330 | 351 | 276
UACUUAUAUAUCAACUUAAAUUAUUCAGAAGGAGCGUGAUCAUUCACAGGUAGGUCGCUGAACUAGUGAUGUUAGUUUUAAUUUU [JR_Nu_ExcArginiA_Sub023] | 67.9 | 146 | 81.3 | 126 | 61.5
GAUUACAACAGAGUGAUGUUCUGACUUUCUCGAGGACCGGUACGGCCGCCACUCGUUAAACAAAGUGGUUUGCCAAGGCCAACUU | 139 | 198 | 157 | 208 | 111
UAUACACAGGGAGGAUAUGCCCACACAACAACCGAGUGAUGUUCGGACAAUACACAUAAUACACGGGCAGAAGGCCCACAUCACA [SS FNM B Tesla 1] | 143 | 195 | 245 | 192 | 139
UGGAUAUAGUGAUGUUAUAUAGAGAGGGAUACCAGUUUAGAGAAGAACCCUUGGCAGCCUAAAGAAGUAUCAUUAGAGAAGAAUG [ExTheophyl.An] | 370 | 229 | 253 | 324 | 241
UGAUACCAGACUGAUACCAGCCACAGAGUCAAGACUCUGAUAAAGGUAACCAGUGAUGUUGGCCCUUGGCAGCAGUCUGGUAUCU [TheoBX 16 #SwitchBubble #StaticStem] | 193 | 164 | 166 | 149 | 156
UGACUGGACUGAAGGAGCGCAAAACUCCUAGUGAUGUUAGGAAAACGAGACAAAGUCUCGAUGCAGGUAGGUCGCAGUCUAGUCU | 209 | 146 | 185 | 194 | 182

Sequence | apparent KD of K4 kissing-loop reporter (input ligand: FMN 200 uM) [nM] | apparent KD of K4 kissing-loop reporter (input ligand: arginine 13.2 mM) [nM] | apparent KD of K4 kissing-loop reporter (input ligand: none) [nM] | apparent KD of K4 kissing-loop reporter [1] [nM] | apparent KD of K4 kissing-loop reporter [2] [nM]
GGUGUUGUUUGUGCUGUUUUCUUCGUUUCUCGAGGACCGGUACGGCCGCCACUCGAGUGAUGUUUGGGUAGCGAUCUUUGUUAGU [Bdazzled - #4- Exc. Tryptophan A] | 430 | 256 | 345 | 339 | 385
ACUAUCAUUACGCAUGGAGUGAUGUUUCAGCGAGGACCGGUACGGCCGCCACUCGUUACGUGGUUAGAGCCAAUGUUCGAGAAGC [theeternabot_exclusion_KL_Trp_A_39] | 1170 | 832 | 927 | 1270 | 520
AAGCGUGUGGCGGCCGCCACUAGUCUCCAGUGAUGUUGGAGAGAUCACGUAAGUGAUCUCCGACAUAGGACCGGGCCAUAUGGAA [Same State - Tryptophan B (Freestyle 23)] | 69.1 | 125 | 186 | 443 | 214
AUAUUUAUUUAGUCACUUUUCAUAUUAUGUCAGGAUAUCGUAUUUUCGAGAAGGGACUCAUGGUAGUGAUGUUACCUAUUUCUCA [#03 K4 FMN A Exclusion] | 196 | 382 | 387 | 404 | 303
CGUGCCCAGCCGGAUACCAGUGACCCGCUGGGAACCGCGGGCCCAGAGUGAUGUUCGGGACACCCUUGGCAGCCGCCUGGGCGGC [#2 Same State - Theophylline B Attempt #12 (HarryS)] | 1380 | 724 | 462 | 440 | 1250
AUGGGCGAGGUAACGUGGAUAUCUCGUCGCAAGGAUAUCUGGAAACAGAGAAGGUGCUACAUUACCGGCAGUGAUGUUGCUGACC | 959 | 231 | 559 | 263 | 131
CUAGCCGGGAAAGGAUAUACACACGCACAUAACGAGUGAUGUUCGUUAAUACCAACUUGGUUAACUGUAGAAGGUUCAUCGUCAC [theeternabot_sameState_KL_FMN_B_36] | 579 | 576 | 803 | 793 | 517
GGAUAGGAUAGAGGAUAUGGAAAACACAGAAAUGACUUGUUGUGUUUAUCCAUAGGGAGUGAUGUUCCAGAAGGCUGUCCUAUCG [MatMod 21 - Jieux - Exclusion - FMN B] | 289 | 184 | 194 | 198 | 158
UCAAACGAUGGAAGGAGCGCUCGUCAGUCCUGCGAGUGAUGUUCGUGGGUAAAUAGUCGCGAGCAGGUAGGUCGCCAUCUUAAGC [Bisodi] | 135 | 98.1 | 118 | 108 | 113
AUUUAUUCGUACUUUCAGUGAUGUUGAUAACGAGGACCGGUACGGCCGCCACUCGAUUUGGCGAUUUUGUAUUUUUUAUUCUAUA [JR_SSTryptoA_Sub010] | 403 | 474 | 510 | 415 | 317
GAAUUAUGUAGAAGGAGCGUUAGAAGGUAUAGGUGCGAGUGAUGUUUGGAUUUGUUAAUUUGACAGGUAGGUCGCUACAGAAGGA [KL-SSArg B18 #analogue] | 946 | 259 | 567 | 205 | 306
AGUGAUGUGGGAAGGAGCGGUAUAUGAAUUCAGUGAUGUUGAAGUGAUGCUGUAAUGAUGUGCCAGGUAGGUCGCCUAGAUGUUA [KL-XARG B26] | 267 | 161 | 244 | 171 | 187
GGACGACAGUCGGCCGCCACUCACAGCCGAGUGAUGUUCGGGAUUGUAGCGGAGUGAUGUUUCGCGAGGACCGGGACUGCAGUCC [Same State Typtophan B GF 27] | 200 | 166 | 184 | 171 | 141
GGACUACUAUGUCCCAUACAAACAAGAGAUACCAGCCAUCAUAGAGGCCCUUGGCAGCUCAUAUAAUCCAGUGAUGUUGGAUUUC [Beveus] | 150 | 193 | 163 | 136 | 132
GGAUAGGACACGGCCGCCACUACCGAGGAUACUCGAAACAUUUCCUCAGAUGAGUGAUGUUCAUCUAGGACCGGGUGUCCUAUCG [KL-XTryp-B19 #analogue] | 125 | 103 | 118 | 121 | 131
CCUGGCGAGGUAACGUGGAUAUCUCGUCGCAAGGAUAUCUGGAAACAGAGAAGGUGCUACAUUACCGGCAGUGAUGUUGCUGACC | 841 | 336 | 426 | 455 | 274
CGAGUGAUGUUCGAAGAGUUGUUAAGCGAUACCAGCCAGGAAACUGGCCCUUGGCAGCGUAAUAAAUAAAUAAAUAAAUGAUCAC [Theophylline A Exclusion; Euphoria Solution] | 425 | 438 | 472 | 430 | 372
UUCUACGUGCAAGGAUAUCCAUACGCUGCUAAGCGGGUAGCGAUAUAUGGAGUGAUGUUCCAUGUAGGAGAAGGUGCACUGUCCU [Rieser] | 144 | 295 | 348 | 253 | 242
AAAUAAAUCACGGCCGCCACUGCUAGAGUGAUGUUCUAUUAAUAAUUUCUAAAUUAUAUAAUACUCAGGACCGGGUGAUUUUUAA [JR_SSTryptoB_Sub020] | 578 | 215 | 355 | 426 | 446
UGUCAUUGGUCUGAUACCAGUUAGACCGAUAGGUCAAAACUGGAGUGAUGUUCCCAAAAUAACCCUUGGCAGCAGACCGAUGACU [TheoBS 3 #SwitchBubble #StaticStem] | 280 | 149 | 152 | 282 | 191
AUUUUGGUUGAAGGAUAUUCUCCCAUCGACGCGAUAAGAUACUUUGGAAGGUUUGCAGUGAUGUUGGAAGAAGGUCAAAGUUGUA [theeternabot_exclusion_KL_FMN_B_22] | 479 | 382 | 611 | 689 | 523
